{"source": "patent US9206246B2", "about": "“Heparin/heparan sulfate-dependent inhibitors of activated protein C and uses thereof in treating hemophilic disorders” (Academia Sinica, priority 2012, dated 2015)", "assay_type_in_all_cases": "biochemical", "key": {"plasmin": {"biological_target": "T1, plasmin (Homo sapiens, UniProt P00747)", "T1 construct": "thrombin, plasma kallikrein and plasmin were obtained; purchased Haematologic Technologies", "T1 sequence (P00747 581-810 limits assumed)": "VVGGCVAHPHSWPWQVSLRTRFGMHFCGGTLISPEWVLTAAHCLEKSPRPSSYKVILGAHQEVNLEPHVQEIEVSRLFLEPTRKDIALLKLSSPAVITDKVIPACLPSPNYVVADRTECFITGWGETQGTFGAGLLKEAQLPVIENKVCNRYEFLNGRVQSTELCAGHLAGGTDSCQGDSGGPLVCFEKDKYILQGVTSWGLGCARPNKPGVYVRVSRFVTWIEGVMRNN", "T1 sequence (P00747 97-580 limits assumed)": "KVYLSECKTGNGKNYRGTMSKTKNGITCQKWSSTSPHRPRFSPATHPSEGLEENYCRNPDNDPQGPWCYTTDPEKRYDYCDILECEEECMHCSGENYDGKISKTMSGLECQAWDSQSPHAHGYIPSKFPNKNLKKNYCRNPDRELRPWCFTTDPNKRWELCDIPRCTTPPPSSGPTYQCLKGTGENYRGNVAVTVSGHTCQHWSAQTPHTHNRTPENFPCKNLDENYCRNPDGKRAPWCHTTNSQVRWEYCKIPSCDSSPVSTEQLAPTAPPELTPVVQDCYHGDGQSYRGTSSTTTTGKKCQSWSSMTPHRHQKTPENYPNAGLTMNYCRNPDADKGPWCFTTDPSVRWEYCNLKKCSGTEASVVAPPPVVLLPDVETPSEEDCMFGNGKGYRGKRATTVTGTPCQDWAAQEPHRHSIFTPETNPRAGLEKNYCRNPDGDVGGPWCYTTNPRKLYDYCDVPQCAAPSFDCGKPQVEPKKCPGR", "assay": "Selectivity profile and Ki, amidolytic activity of plasmin", "conditions": "for inhibition of plasmin: equimolar, plasmin 20 nM", "experimental": "(§1) In each of these experiments, the molar ratio of protease active site to inhibitor was 1:1. The final concentrations of these proteases and their respective substrates were as follows: FXIIa (20 nM)/S-2302 (0.2 mM), FXIa (2.5 nM)/S-2366 (0.2 mM), FXa (10 nM)/S-2222 (1.3 mM), FIXa (200 nM)/Spectrozyme FIXa (1.3 mM), FVIIa (100 nM)/S-2288 (1.3 mM), thrombin (5 nM)/T-1637 (0.2 mM), kallikrein (5 nM)/S-2302 (0.2 mM), plasmin (20 nM)/S-2251 (0.2 mM), tPA (80 nM)/Spectrozyme tPA (0.2 mM), uPA (100 nM)/S-2288 (1.3 mM), APC (10 nM)/Spectrozyme PCa (0.2 mM) and trypsin (5 nM)/S-2222 (0.2 mM). Results shown are means±SD of at least three experiments.\n(§2) DrKIn-I, with or without heparin, was screened for its inhibitory activity against trypsin and also against serine proteases in the coagulation cascade (FXIIa, FXIa, FXa, FIXa, FVIIa, thrombin and kallikrein) and in the fibrinolytic system (plasmin, tPA and uPA). The amidolytic activities of these proteases were determined in the presence or absence of equimolar concentrations of DrKIn-I using their respective chromogenic substrates."}, "factor Xa (FXa)": {"biological_target": "T2, factor Xa (FXa) (Homo sapiens, UniProt P00742)", "T2 construct": "factor Xa (FXa); purchased Haematologic Technologies", "T2 sequence (P00742 235-488 limits assumed)": "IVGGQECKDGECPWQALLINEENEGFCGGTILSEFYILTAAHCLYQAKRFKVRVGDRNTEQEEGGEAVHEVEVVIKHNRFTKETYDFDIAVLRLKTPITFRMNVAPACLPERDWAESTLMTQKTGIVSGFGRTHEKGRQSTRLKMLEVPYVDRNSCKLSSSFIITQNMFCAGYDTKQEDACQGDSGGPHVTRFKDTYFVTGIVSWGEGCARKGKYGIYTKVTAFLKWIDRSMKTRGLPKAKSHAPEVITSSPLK", "T2 sequence (P00742 41-179 limits assumed)": "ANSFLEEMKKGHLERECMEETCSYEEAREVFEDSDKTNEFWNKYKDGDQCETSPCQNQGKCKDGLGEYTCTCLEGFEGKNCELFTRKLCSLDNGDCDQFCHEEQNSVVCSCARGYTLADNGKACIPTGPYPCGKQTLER", "assay": "Selectivity profile, amidolytic activity of FXa", "experimental": "as §1, §2"}, "[1]": {"test_system": "protein C-deficient plasma", "assay": "Thrombin generation assay in protein C-deficient plasma", "conditions": "TM-containing protein C-deficient plasma, heparan sulfate", "experimental": "Thrombin generation in normal (A) and protein C-deficient (B) plasma. Experiments were performed in the presence of heparan sulfate (2 μg/ml). Solid lines represent thrombin generation in the presence of 100 nM thrombomodulin (TM) and varying concentrations of DrKIn-I (●, 0 nM; ▪, 40 nM; ▴, 80 nM; ◯, 200 nM). Dashed lines represent thrombin generation in the absence of TM and DrKIn-I.\nBriefly, 80 μl of either normal plasma, protein C-deficient plasma, FVIII-deficient plasma or FIX deficient plasma containing 2 μM corn trypsin inhibitor, 2 μg/ml heparan sulfate (four disaccharide units long), 30 μM DOPC/DOPS/DOPE (60:20:20) and 100 nM recombinant TM was incubated with 20 μl of 500-fold diluted TF solution (Innovin; Dade Behring) in the absence or presence of the indicated concentrations of DrKIn-I. Following incubation for 3 minutes at 37° C., thrombin generation was initiated by the dispensation of 20 μl of 2.5 mM fluorogenic substrate (Z-Gly-Gly-Arg-AMC.HCl) dissolved in 0.15 M NaCl, 60 mg/ml BSA and 100 mM CaCl2. Measurements were taken at 1 minute intervals on a SpectraMax M2^e Microplate Reader using an excitation wavelength of 360 nm and an emission wavelength of 460 nm. In some assays, experiments were performed in the absence of thrombomodulin. Results were evaluated using the Technothrombin TGA software (Technoclone)."}, "APC in normal plasma": {"test_system": "APC in normal plasma", "assay": "APTT-based APC resistance assay in normal plasma", "conditions": "200 nM DrKIn-I, 40 nM APC, 2 μg/ml heparan sulfate", "experimental": "(§3) APTT-based clotting times were measured in normal, FVIII-deficient and FIX-deficient plasma containing 2 μg/ml heparan sulfate in the presence or absence of 40 nM APC and the indicated concentrations of DrKIn-I. Results shown are means±S.D. of at least three experiments.\n(§4) 50 μl of normal plasma, FVIII-deficient plasma or FIX-deficient plasma supplemented with 2 μg/ml heparan sulfate (four disaccharide units long) was exposed to APC (40 nM) and varying concentrations of DrKIn-I (50-200 nM). 50 μl of activated partial thromboplastin (APTT) reagent (HYPHEN Biomed) was added and incubated for 1 minute at 37° C. Finally, clotting was initiated by adding 50 μl of 20 mM CaCl2. Coagulation times, which reflect the activities of APC, were recorded on a coagulometer (Hemostasis Analyzer KC-1; Sigma Diagnostics)."}, "[2]": {"test_system": "APC in FIX-deficient plasma", "assay": "APTT-based APC resistance assay in FIX-deficient plasma", "conditions": "50-200 nM DrKIn-I, 40 nM APC, 2 μg/ml heparan sulfate", "experimental": "as §3, §4"}, "APC": {"biological_target": "APC (Homo sapiens, UniProt P04070)", "sequence (P04070 212-450 limits assumed)": "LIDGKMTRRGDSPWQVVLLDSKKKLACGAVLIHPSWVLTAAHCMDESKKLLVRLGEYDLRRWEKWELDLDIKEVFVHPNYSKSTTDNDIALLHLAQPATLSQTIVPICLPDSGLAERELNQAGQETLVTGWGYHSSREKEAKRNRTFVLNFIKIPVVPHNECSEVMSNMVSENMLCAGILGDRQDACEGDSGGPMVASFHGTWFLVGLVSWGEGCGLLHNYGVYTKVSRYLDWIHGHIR", "sequence (P04070 43-197 limits assumed)": "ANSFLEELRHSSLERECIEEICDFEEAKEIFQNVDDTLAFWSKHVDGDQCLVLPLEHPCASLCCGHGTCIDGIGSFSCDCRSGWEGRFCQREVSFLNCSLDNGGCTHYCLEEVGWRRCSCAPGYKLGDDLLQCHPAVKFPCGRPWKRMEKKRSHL", "assay": "APC-mediated FVa inactivation assay (residual FVa activity, prothrombin time-based)", "design": "purchased Haematologic Technologies", "experimental": "B: Dose-response curves of APC (10 nM) inhibition by DrKIn-I in the absence (◯) and presence (●) of 0.1 U/ml heparin. C: To determine the minimum concentration of heparin required for the potentiation APC inhibition, the activity of APC (20 nM) was measured after the addition of DrKIn-I (20 nM) and varying concentrations of heparin (0-1000 mU/ml). D: To assess the ability of heparan sulfate and the minimum length of heparan sulfate required to potentiate DrKIn-I-mediated APC inhibition, the amidolytic activity of APC was determined in the presence of DrKIn-I (20 nM) and different lengths of heparan sulfate chains (10 μg/ml each). E, Time course of FVa inactivation by APC (1 nM) was assessed in the absence (●) or presence (▪) of 5 nM DrKIn-I, or in the presence of 5 nM DrKIn-I supplemented with 0.1 U/ml heparin (▴), as described in “Materials and methods”. F, The effect of DrKIn-I (0-250 nM) and/or heparin (0.1 U/ml) on APC-mediated FVa inactivation was determined after 10 minutes of incubation at 37° C. with APC (5 nM). Results shown are means±SD of three experiments.\nIn assays involving FVa, 20 nM purified FVa was incubated at 37° C. with a mixture containing 1 nM or 5 nM APC, 20 nM protein S, 20 μM DOPC/DOPS (75:25) and 5-250 nM DrKIn-I in the presence or absence of 0.1 U/ml heparin. At specific time intervals, 5 μl aliquots were removed and mixed with 50 μl of FV-deficient plasma. The residual FVa activities were quantified in a standard prothrombin time-based assay using a calibration curved obtained by adding variable amounts of FVa to FV-deficient plasma. All concentrations given were final concentrations."}}, "note": "Entries after “also recorded” stand apart in the source; their conditions may differ."}
{"substance": "DrKIn-I (CGGNDNNFETRKKCRQTCGAPRKGRPT)", "values": [{"measurement": "inhibition of plasmin", "setting": "plasmin; in the absence of heparin", "result": "~20", "unit": "%"}, {"measurement": "inhibition of plasmin", "setting": "plasmin; in the presence of heparin (0.1 U/ml)", "result": "~70", "unit": "%"}, {"measurement": "Ki", "setting": "plasmin; in the presence of heparin, read-out: Ki for plasmin inhibition", "result": "1.56 ± 0.09", "unit": "nM"}, {"measurement": "inhibitory activity against factor Xa", "setting": "factor Xa (FXa)", "result": "no inhibitory activities"}, {"measurement": "thrombin generation profile (APC-independent)", "setting": "[1]", "result": "did not alter the thrombin generation profile; also recorded: negligible effects"}, {"measurement": "clotting time", "setting": "APC in normal plasma", "result": "almost completely restored the clotting time to that observed in the absence of APC"}, {"measurement": "clotting time", "setting": "[2]", "result": "dose-dependently decreased the clotting time"}, {"measurement": "FVa protected from inactivation", "setting": "APC; 5 nM DrKIn-I with 0.1 U/ml heparin, APC 1 nM, FVa 20 nM", "result": 100, "unit": "%"}, {"measurement": "FVa protected from inactivation", "setting": "APC; 250 nM DrKIn-I (50-fold molar excess) without heparin, APC 5 nM, 10 minutes", "result": "less than 20%"}, {"measurement": "effect on APC-mediated FVa degradation", "setting": "APC; without heparin (5 nM DrKIn-I, APC 1 nM, FVa 20 nM)", "result": "relatively no effect on APC activity; also recorded: negligible"}]}
